Starred links: 1 amine or outer side, 2 acyl side, 3 side chain; linkers in the order of their positions; H or OH if unused. Non-standard residues stand in square brackets, D forms with d. No end group written: not given here. Tyr(3,5-3H) = [3H]c1cc(C[C@H](N[*:1])C(=O)[*:2])cc([3H])c1O[*:3]

The values below come from patent publication US7070974B1, “Metalloproteases of the neprilysin family” (Universite de Montreal, priority 1999, dated 2006).

Assay type in all cases: biochemical
Assay [1] has as its target T1, sNEP (engineered soluble form of NEP) (Oryctolagus cuniculus, UniProt P08049).
T1 construct: Fusion of a cleavable signal peptide to the ectodomain of neutral endopeptidase; cleavable signal peptide of proopiomelanocortin (replaces cytosolic and transmembrane domains) (N, cleaved yes); made in house; host or cells: LLC-PK1 cells transfected with pRcCMV-sNEP; concentrated culture medium
T1 sequence (P08049 52-750 limits assumed): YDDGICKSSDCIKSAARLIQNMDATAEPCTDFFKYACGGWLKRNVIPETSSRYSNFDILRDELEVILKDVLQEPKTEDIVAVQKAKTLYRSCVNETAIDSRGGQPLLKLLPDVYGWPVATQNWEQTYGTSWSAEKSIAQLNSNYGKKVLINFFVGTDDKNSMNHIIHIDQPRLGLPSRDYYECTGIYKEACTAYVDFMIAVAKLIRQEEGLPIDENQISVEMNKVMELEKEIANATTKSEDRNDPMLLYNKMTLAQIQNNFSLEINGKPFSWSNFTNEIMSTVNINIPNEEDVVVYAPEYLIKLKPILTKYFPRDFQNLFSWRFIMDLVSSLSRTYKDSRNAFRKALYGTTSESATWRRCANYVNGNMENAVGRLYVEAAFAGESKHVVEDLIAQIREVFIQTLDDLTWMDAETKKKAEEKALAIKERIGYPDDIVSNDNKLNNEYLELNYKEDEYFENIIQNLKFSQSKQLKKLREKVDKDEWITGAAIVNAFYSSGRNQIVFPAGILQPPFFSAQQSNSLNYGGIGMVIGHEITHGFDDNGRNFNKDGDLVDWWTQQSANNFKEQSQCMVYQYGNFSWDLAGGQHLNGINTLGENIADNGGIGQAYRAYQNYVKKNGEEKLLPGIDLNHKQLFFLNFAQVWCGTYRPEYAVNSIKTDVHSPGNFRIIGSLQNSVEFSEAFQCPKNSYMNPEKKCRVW
Kind of assay: sNEP enzymatic activity assay with (Tyrosyl-[3,5-3H])(D-Ala2)-Leu5-enkephalin as substrate. To be noted: substrate of sNEP; isotope-dilution method.

The target in assay [2] is T2, soluble form of NL-3 (Homo sapiens, UniProt O95672).
T2 construct: the ectodomain of NL-3 (from the third cysteine to the end) was spliced to NL-1 amino-terminal domain; mouse NL-1 amino-terminal domain (initiator methionine to the furin site) (N); made in house; host or cells: COS-1 and HEK 293 cells transfected with pRcCMV; spent culture medium
T2 sequence (O95672 83-775 limits assumed): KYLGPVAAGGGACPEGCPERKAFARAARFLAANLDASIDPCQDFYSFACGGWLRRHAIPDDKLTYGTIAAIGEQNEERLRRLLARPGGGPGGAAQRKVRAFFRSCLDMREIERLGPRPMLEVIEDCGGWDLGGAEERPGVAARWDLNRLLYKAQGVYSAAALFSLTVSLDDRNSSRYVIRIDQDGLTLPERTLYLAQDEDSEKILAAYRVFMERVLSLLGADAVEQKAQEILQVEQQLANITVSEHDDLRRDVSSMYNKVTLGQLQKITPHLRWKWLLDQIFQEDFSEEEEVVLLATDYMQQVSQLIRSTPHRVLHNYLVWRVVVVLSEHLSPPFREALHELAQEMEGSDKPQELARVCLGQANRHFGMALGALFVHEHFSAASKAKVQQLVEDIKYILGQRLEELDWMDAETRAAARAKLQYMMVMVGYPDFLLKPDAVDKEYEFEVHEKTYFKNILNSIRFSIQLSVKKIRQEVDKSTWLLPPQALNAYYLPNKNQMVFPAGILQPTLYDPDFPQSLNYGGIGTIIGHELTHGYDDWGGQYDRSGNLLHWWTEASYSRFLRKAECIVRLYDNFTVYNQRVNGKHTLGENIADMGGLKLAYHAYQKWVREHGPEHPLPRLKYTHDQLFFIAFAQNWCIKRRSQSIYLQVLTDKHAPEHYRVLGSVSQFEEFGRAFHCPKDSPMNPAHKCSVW
In words: Soluble NL-3 activity assay with [3H]-Tyr-(D)Ala2-Leu-enkephalin as substrate. To be noted: soluble NL-3 from the NL-1 amino-terminal fusion. On the procedure: (§1) Extracts of cellular proteins and culture media were assayed for enzymatic activity. Two tests were performed. The first used [^3H]-Tyr-(D)Ala2-Leu-enkephalin as substrate and was performed according to Lemay et al., (1989). The second used bradykinin as substrate and was performed as described by Raut et al. (1999).
The observation that NL-1 ectodomain was secreted, possibly through cleavage of the transmembrane segment by furin, raised the possibility to promote secretion of exogenous proteins that could be spliced to NL-1 amino-terminal domain (from initiator methionine to the furin site). To test this hypothesis, the ectodomain of NL-3 (from the third cysteine to the end) was spliced to NL-1 amino-terminal domain using a PCR strategy and the recombinant DNA cloned in expression vector pRcCMV. The fusion protein was expressed by transfection of the vector in COS-1 and HEK 293 cells. The culture media of transfected cells was analyzed by immunoblotting using the mouse antiserum against NL-3.

The target of assay [3] is T3, NL1 (Mus musculus, UniProt Q9JLI3).
T3 sequence (Q9JLI3 63-765 limits assumed): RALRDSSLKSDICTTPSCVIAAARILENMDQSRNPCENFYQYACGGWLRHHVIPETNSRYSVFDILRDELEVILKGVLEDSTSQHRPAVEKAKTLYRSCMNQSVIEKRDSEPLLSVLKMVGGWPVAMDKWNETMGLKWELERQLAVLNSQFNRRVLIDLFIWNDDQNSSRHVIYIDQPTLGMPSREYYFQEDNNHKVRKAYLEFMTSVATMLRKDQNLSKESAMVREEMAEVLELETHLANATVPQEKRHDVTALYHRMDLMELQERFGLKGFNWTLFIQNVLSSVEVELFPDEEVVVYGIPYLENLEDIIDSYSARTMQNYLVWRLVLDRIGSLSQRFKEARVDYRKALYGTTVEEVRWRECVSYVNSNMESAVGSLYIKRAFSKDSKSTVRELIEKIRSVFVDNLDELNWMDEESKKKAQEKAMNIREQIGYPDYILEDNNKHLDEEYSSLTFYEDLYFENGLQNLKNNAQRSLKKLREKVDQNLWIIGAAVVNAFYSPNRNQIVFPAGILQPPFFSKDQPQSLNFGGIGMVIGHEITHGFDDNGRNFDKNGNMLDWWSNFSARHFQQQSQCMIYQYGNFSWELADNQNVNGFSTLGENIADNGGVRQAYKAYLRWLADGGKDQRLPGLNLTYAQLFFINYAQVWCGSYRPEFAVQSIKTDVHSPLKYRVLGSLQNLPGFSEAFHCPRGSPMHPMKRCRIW
Kind of assay: NL-1 enzymatic activity assay with (Tyrosyl-[3,5-3H])(D-Ala2)-Leu5-enkephalin as substrate. Also noted: The soluble form of NL-1 was assayed for activity; made in house; host or cells: CHO cells (section 1, pcDNA3-RSV) and HEK 293 cells (section 2, pCDNA3/RSV). The protocol: as §1
NL1 activity was monitored and compared to sNEP activity using (Tyrosyl-[3,5-^3H])(D-Ala2)-Leu5-enkephalin (50 Ci/mmol) (Research Products International Inc.), as already described (Dion 1995; Devault 1988). Km values were determined by the isotope-dilution method.

For the substance “(Tyrosyl-[3,5-^3H])(D-Ala2)-Leu5-enkephalin ([Tyr(3,5-3H)][dA]GFL) [D-Ala2-Leu5-enkephalin]”, the Michaelis-Menten constant (Km) in assay [1] is 73 µM; in assay [3] (substrate of soluble NL-1, isotope-dilution method) it was 18 µM. The “activity of soluble NL-3 on the substrate” value in assay [2] is given as “No activity”. Further, the “Km value of NL1 relative to NEP” value in assay [3] (fold lower for NL1 than NEP) was 4- to 5 fold.

By Km is commonly meant the concentration of substrate that gives half-maximal velocity.
